Results taken from US20070123452A1, “Method of selecting novel immunosuppressant” (Astellas Pharma Inc., priority 2002, published 2007).
Substitutions are numbered along the chain they refer to. Names and notes keep the numbering of the source.

T1: HDAC3, endogenous protein of the transfected cells, O15379
T1 chain: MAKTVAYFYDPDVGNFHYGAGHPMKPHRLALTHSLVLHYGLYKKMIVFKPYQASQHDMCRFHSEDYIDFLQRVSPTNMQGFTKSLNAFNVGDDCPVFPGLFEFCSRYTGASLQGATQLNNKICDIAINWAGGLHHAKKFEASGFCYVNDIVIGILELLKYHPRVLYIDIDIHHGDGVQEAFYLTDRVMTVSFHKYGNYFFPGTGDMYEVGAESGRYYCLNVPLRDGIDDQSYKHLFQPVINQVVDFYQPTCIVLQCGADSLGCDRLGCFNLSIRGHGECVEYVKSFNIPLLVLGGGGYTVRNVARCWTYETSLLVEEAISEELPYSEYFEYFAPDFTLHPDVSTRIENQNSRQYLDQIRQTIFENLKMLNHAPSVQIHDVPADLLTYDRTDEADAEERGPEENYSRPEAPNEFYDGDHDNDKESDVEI

B1: HDAC4 dominant negative variants (H802K, H803L): HDAC4 variant with H802K and H803L mutations, amino acid sequence SEQ ID NO:4, expressed from plasmid (protein)
chain: MSSQSHPDGLSGRDQPVELLNPARVNHMPSTVDVATALPLQVAPSAVPMDLRLDHQFSLPVAEPALREQQLQQELLALKQKQQIQRQILIAEFQRQHEQLSRQHEAQLHEHIKQQQEMLAMKHQQELLEHQRKLERHRQEQELEKQHREQKLQQLKNKEKGKESAVASTEVKMKLQEFVLNKKKALAHRNLNHCISSDPRYWYGKTQHSSLDQSSPPQSGVSTSYNHPVLGMYDAKDDFPLRKTASEPNLKLRSRLKQKVAERRSSPLLRRKDGPVVTALKKRPLDVTDSACSSAPGSGPSSPNNSSGSVSAENGIAPAVPSIPAETSLAHRLVAREGSAAPLPLYTSPSLPNITLGLPATGPSAGTAGQQDTERLTLPALQQRLSLFPGTHLTPYLSTSPLERDGGAAHSPLLQHMVLLEQPPAQAPLVTGLGALPLHAQSLVGADRVSPSIHKLRQHRPLGRTQSAPLPQNAQALQHLVIQQQHQQFLEKHKQQFQQQQLQMNKIIPKPSEPARQPESHPEETEEELREHQALLDEPYLDRLPGQKEAHAQAGVQVKQEPIESDEEEAEPPREVEPGQRQPSEQELLFRQQALLLEQQRIHQLRNYQASMEAAGIPVSFGGHRPLSRAQSSPASATFPVSVQEPPTKPRFTTGLVYDTLMLKHQCTCGSSSSHPEHAGRIQSIWSRLQETGLRGKCECIRGRKATLEELQTVHSEAHTLLYGTNPLNRQKLDSKKLLGSLASVFVRLPCGGVGVDSDTIWNEVHSAGAARLAVGCVVELVFKVATGELKNGFAVVRPPGKLAEESTPMGFCYFNSVAVAAKLLQQRLSVSKILIVDWDVHHGNGTQQAFYSDPSVLYMSLHRYDDGNFFPGSGAPDEVGTGPGVGFNVNMAFTGGLDPPMGDAEYLAAFRTVVMPIASEFAPDVVLVSSGFDAVEGHPTPLGGYNLSARCFGYLTKQLMGLAGGRIVLALEGGHDLTAICDASEACVSALLGNELDPLPEKVLQQRPNANAVRSMEKVMEIHSKYWRCLQRTTSTAGRSLIEAQTCENEEAETVTAMASLSVGVKPAEKRPDEEPMEEEPPL
modifications: Dominant negative mutant (H802K, H803L) of human histone deacetylase-4 (HDAC4) gene
B2: HDAC4 dominant negative variant (H863L) with C-terminal Flag (expressed from pEAK-HDAC4 (H863L)) (protein)
chain: MSSQSHPDGLSGRDQPVELLNPARVNHMPSTVDVATALPLQVAPSAVPMDLRLDHQFSLPVAEPALREQQLQQELLALKQKQQIQRQILIAEFQRQHEQLSRQHEAQLHEHIKQQQEMLAMKHQQELLEHQRKLERHRQEQELEKQHREQKLQQLKNKEKGKESAVASTEVKMKLQEFVLNKKKALAHRNLNHCISSDPRYWYGKTQHSSLDQSSPPQSGVSTSYNHPVLGMYDAKDDFPLRKTASEPNLKLRSRLKQKVAERRSSPLLRRKDGPVVTALKKRPLDVTDSACSSAPGSGPSSPNNSSGSVSAENGIAPAVPSIPAETSLAHRLVAREGSAAPLPLYTSPSLPNITLGLPATGPSAGTAGQQDTERLTLPALQQRLSLFPGTHLTPYLSTSPLERDGGAAHSPLLQHMVLLEQPPAQAPLVTGLGALPLHAQSLVGADRVSPSIHKLRQHRPLGRTQSAPLPQNAQALQHLVIQQQHQQFLEKHKQQFQQQQLQMNKIIPKPSEPARQPESHPEETEEELREHQALLDEPYLDRLPGQKEAHAQAGVQVKQEPIESDEEEAEPPREVEPGQRQPSEQELLFRQQALLLEQQRIHQLRNYQASMEAAGIPVSFGGHRPLSRAQSSPASATFPVSVQEPPTKPRFTTGLVYDTLMLKHQCTCGSSSSHPEHAGRIQSIWSRLQETGLRGKCECIRGRKATLEELQTVHSEAHTLLYGTNPLNRQKLDSKKLLGSLASVFVRLPCGGVGVDSDTIWNEVHSAGAARLAVGCVVELVFKVATGELKNGFAVVRPPGHHAEESTPMGFCYFNSVAVAAKLLQQRLSVSKILIVDWDVHHGNGTQQAFYSDPSVLYMSLLRYDDGNFFPGSGAPDEVGTGPGVGFNVNMAFTGGLDPPMGDAEYLAAFRTVVMPIASEFAPDVVLVSSGFDAVEGHPTPLGGYNLSARCFGYLTKQLMGLAGGRIVLALEGGHDLTAICDASEACVSALLGNELDPLPEKVLQQRPNANAVRSMEKVMEIHSKYWRCLQRTTSTAGRSLIEAQTCENEEAETVTAMASLSVGVKPAEKRPDEEPMEEEPPLDYKDDDDK
B3: HDAC4 dominant negative variant (H802K, H803L) with C-terminal Flag (expressed from pEAK-HDAC4 (H802K, H803L)) (protein)
chain: B2 chain with H802K, H803L, L863H

Experiments:
[1] = tested on: IL-2 transcription (human IL-2 promoter); assay: IL-2 reporter gene assay in Jurkat cells; type: cell-based
Protocol: To 1 μg of the plasmid pGL3 IL2 Pro43, which has a human IL-2 promoter sequence (the −674 to +54 region in the vicinity of the transcription initiation site) upstream of the firefly luciferase gene, and 6 μg of pRL-TK (Promega), the plasmids for the expression of wild-type HDAC4 or each of HDAC4 dominant negative variants (H802K, H803L, H863L) prepared in Example 3 was mixed in various ratios (1, 3 and 10 μg), and 1×10^7 Jurkat cells (ATCC, TIB-152) were transformed by the electroporation method (BIO-RAD, Gene Pulser II, voltage 300 V, charge 975 μF, 400 μL).
After transformation, 2.5 mL of RPMI 1640 containing 10% FBS (MOREGATE) (10% FBS RPMI 1640) was added, and this mixture was dispensed to a 96-well white plate in a ratio of 50 μL/well. After cultivation under conditions of 37° C., 5% CO2 and saturated humidity for 10 hours, a liquid mixture of Phorbol 12-Myristate 13-Acetate (PMA, SIGMA), Ionomycin (SIGMA) and Anti-CD28 antibody (Pharmingen) in 10% FBS RPMI 1640 was added at 50 μL/well (the final concentrations were 50 ng/mL, 1 μg/mL and 75 ng/mL, respectively) to stimulate the Jurkat cells. After cultivation under conditions of 37° C., 5% CO2 and saturated humidity for 12 hours, luciferase activity in the cells was measured according to the manual of the Bright-Glo Luciferase Assay System (Promega) using a multi-label counter (1420 MULTILABEL COUNTER ARVO SX, WALLAC).
1×10^7 Jurkat cells (ATCC, TIB-152) were transformed with 10 μg of a plasmid for the expression of various HDACs or HDAC variants by the electroporation method (BIO-RAD, Gene Pulser II, voltage 300 V, charge 975 μF, 400 μL). […] After cultivation under conditions of 37° C., 5% CO2 and saturated humidity for 12 hours, luciferase activity in cells were measured according to the manual of the Bright-Glo Luciferase Assay System (Promega), and IL-2 transcriptional activity was measured using a multi-label counter (1420 MULTILABEL COUNTER ARVO SX, WALLAC).
(§1) A mixture of four kinds of HDAC4-targeted siRNA, i.e., siGENE HDAC4 SMARTpool (manufactured by Dharmacon Inc., marketed by B-Bridge international Inc., code number M-003497-00-05), or Non-specific Control Duplex IX (47% GC content) (manufactured by Dharmacon Inc., marketed by B-Bride international Inc., code number D-001206-09-20), and pGL3 IL2 Pro43 were transfected to Jurkat cells by the electroporation method using the same conditions as those mentioned above, and IL-2 transcriptional activity was measured. Likewise, siGENE HDAC4 SMARTpool or Non-specific Control Duplex IX, and pGL3-HSI-IE Pro were transfected to HEL cells, and GATA-1 transcriptional activity was measured. […]

[2] = tested on: GATA-1 transcription (human GATA-1 promoter); assay: GATA-1 reporter gene assay in HEL cells; type: cell-based; details: 10 μg expression plasmid
Protocol: Using 15 μg of pGL3-HSI-IE Pro and 10 μg of a plasmid for the expression of various HDACs or HDAC variants, 8.75×10^6 HEL cells (accession number JCRB0062, JCRB) were transformed by the electroporation method (BIO-RAD, Gene Pulser II, voltage 1750 V, charge 10 μF, 365 μL). After transformation, 2 mL of 10% FBS RPMI 1640 was added, and this mixture was dispensed to a 96-well white plate in a ratio of 50 μL/well. After cultivation under conditions of 37° C., 5% CO2 and saturated humidity for 3 hours, 10% FBS RPMI 1640 medium was added at 50 μL/well. After cultivation under conditions of 37° C., 5% CO2 and saturated humidity for 8 hours, luciferase activity in cells were measured according to the manual of the Bright-Glo Luciferase Assay System, and GATA-1 transcriptional activity was measured using a multi-label counter.
as §1, with “measured.” for “measured. Likewise, siGENE HDAC4 SMARTpool or Non-specific Control Duplex IX, and pGL3-HSI-IE Pro were transfected to HEL cells, and GATA-1 transcriptional activity was measured.”

histone = assay: HDAC activity with [3H]-labeled acetylated histone as a substrate; type: biochemical, human; details: expressed in 293T cells, crudely purified; compared to wild-type HDAC4
Protocol: 7 μg of a plasmid for the expression of wild-type HDAC4 and HDAC4 dominant negative variants (H802K, H803L, H863L) was transfected to 293T cells by the calcium phosphate method; 48 hours later, whole cell lysate (cells were disrupted in 25 mM Tris, pH 7.4, 150 mM NaCl, 1 mM CaCl2, 1% Triton X-100, and cell debris was removed by centrifugation) was crudely purified using an anti-Flag antibody column (SIGMA, anti-Flag M2-agarose) (washed with TBS, then eluted with 0.1M Glysine-HCl, pH 3.5), and used for the measurement of HDAC activity. The reaction substrate used was a [^3H]-labeled acetylated histone prepared by cultivating Jurkat cells (2×10^8 cells) in 40 mL of an RPMI (SIGMA) medium containing 300 MBq [^3H] sodium acetate (NENTM Life Science Products, Inc.) for 2 hours, disrupting the cells in Lysis buffer, pH 6.5 (10 mM Tris-HCl, 50 mM Sodium Hydrogen sulfate, 1% Triton X-100, 10 mM MgCl2-6H2O, 8.6% Sucrose), washing the cells with Wash buffer (10 mM Tris-HCl, 13 mM EDTA), and then adding 0.4N H2SO4.

[3] = molecular target: T1, HDAC3, endogenous protein of the …
[4] = molecular target: N-CoR (nuclear receptor corepressor), endogenous protein of the transfected cells, O75376
Sequence of N-CoR (nuclear receptor corepressor), endogenous protein of the transfected cells, O75376 (O75376 whole entry): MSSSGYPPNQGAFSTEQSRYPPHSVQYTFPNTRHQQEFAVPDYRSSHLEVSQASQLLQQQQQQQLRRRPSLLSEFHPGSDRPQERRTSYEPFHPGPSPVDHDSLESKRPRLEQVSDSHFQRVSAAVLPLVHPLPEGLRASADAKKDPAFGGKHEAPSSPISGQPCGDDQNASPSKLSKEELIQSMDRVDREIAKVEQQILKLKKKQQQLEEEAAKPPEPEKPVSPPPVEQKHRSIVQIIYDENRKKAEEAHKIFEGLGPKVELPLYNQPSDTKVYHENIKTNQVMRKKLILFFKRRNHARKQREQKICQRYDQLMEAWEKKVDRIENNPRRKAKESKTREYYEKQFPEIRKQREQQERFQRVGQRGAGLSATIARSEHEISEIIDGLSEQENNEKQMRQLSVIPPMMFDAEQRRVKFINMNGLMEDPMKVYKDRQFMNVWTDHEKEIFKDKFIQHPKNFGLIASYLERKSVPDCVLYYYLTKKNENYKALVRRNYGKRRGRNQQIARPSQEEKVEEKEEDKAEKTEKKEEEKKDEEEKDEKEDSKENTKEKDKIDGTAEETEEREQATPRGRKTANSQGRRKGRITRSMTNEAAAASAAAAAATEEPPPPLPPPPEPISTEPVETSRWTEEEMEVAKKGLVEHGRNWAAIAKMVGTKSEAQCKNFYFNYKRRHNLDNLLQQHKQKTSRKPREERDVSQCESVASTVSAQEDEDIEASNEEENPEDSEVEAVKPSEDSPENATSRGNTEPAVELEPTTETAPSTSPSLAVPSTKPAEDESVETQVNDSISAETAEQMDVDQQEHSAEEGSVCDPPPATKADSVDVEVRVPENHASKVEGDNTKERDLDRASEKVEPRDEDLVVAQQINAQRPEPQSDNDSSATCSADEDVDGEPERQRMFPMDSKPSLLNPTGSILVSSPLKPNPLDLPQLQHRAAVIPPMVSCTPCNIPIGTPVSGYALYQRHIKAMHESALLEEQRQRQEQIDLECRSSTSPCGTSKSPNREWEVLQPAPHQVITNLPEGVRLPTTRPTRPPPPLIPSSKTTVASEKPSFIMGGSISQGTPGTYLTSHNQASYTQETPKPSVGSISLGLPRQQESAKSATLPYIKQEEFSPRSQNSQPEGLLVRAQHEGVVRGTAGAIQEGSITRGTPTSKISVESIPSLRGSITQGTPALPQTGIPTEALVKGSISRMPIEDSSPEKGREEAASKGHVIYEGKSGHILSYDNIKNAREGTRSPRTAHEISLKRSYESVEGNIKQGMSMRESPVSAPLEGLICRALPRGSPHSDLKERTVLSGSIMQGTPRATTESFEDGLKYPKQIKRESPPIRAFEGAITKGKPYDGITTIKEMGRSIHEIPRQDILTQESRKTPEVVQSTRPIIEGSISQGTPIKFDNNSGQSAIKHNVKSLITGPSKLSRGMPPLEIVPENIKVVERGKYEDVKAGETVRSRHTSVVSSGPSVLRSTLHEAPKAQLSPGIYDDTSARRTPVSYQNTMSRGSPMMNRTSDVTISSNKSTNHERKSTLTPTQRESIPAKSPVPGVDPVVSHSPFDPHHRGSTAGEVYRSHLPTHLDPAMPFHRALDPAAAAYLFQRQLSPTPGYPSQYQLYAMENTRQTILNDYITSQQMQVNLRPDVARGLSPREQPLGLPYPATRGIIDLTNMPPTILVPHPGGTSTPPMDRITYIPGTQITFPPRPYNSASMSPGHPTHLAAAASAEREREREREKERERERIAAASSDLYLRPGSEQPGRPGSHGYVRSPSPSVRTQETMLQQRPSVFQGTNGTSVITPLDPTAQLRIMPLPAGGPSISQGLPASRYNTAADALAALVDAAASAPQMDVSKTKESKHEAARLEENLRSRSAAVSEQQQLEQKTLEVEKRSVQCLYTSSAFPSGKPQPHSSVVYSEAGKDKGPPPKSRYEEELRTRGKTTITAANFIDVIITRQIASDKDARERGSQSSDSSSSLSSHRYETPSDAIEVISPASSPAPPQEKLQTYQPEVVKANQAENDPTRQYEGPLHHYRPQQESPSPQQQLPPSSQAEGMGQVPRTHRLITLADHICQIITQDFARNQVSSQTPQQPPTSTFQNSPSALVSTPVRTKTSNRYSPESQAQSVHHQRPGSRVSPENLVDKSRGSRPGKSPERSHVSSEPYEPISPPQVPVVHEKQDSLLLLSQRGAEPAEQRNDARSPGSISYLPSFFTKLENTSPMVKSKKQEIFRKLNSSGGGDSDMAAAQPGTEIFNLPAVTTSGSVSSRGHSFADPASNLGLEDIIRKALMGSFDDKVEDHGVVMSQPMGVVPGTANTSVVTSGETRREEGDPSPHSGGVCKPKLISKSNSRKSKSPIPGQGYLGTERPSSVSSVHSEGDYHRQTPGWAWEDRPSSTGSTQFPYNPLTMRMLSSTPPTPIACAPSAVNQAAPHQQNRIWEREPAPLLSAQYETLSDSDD

Molecule | IL-2 transcriptional activity (luciferase) ([1]; Jurkat cells stimulated with PMA, Ionomycin, Anti-CD28 antibody, expression plasmid 1, 3 and 10 μg) | IL-2 transcriptional activity (luciferase) ([1]; Jurkat cells, 10 μg expression plasmid, compared with HDAC1 and HDAC3 variants) | GATA-1 transcriptional activity (luciferase) [2] | HDAC activity with histone as a substrate (histone) | HDAC activity with [3H]-labeled acetylated histone as a substrate [3] | HDAC activity with [3H]-labeled acetylated histone as a substrate [4]
B1 | IL-2 transcription suppression depending on the expression level | IL-2 transcription suppression was observed | GATA-1 transcription suppression was not observed | decreased HDAC activity compared to wild-type HDAC4 | – | –
B2 | – | – | – | – | had decreased HDAC activity compared to wild-type HDAC4 | had decreased HDAC activity compared to wild-type HDAC4
B3 | – | – | – | – | had decreased HDAC activity compared to wild-type HDAC4 | had decreased HDAC activity compared to wild-type HDAC4
